Reference: paper doi:10.1101/2022.06.17.496531 (bioRxiv, 2022)

How the values were obtained:
Experiment in all cases: native MS
[1] = molecular target: long neurotoxin 2 from O. hannah (Ophiophagus hannah, UniProt A8N285)
[2] = molecular target: long neurotoxin 2 from N. melanoleuca (Naja melanoleuca, UniProt P01388)
[3] = molecular target: long neurotoxin from N. melanoleuca (Naja melanoleuca, UniProt P0DQQ2)
[4] = molecular target: long neurotoxin 4 from N. naja (Naja naja, UniProt P25672)

Measured: binding result

B1: 2554_01_D11 IgG (antibody, V domains shown)
VH: QVQLVQSGAEVKKPGSSVKVSCKASGGTFSSYAISWVRQAPGQGLEWMGGIIPIFGTANYAQKFQGRVTITADESTSTAYMELRSLRSDDTAVYYCARDNLGYCSGGSCYSDYYYYYMDVWGQGTLVTVSS
VL: NFMLTQPRSVSESPGKTVTISCTRSSGSIGSDYVHWYQQRPGSSPTTVIYEDNQRPSGVPDRFSGSIDSSSNSASLTISGLKTEDEADYYCQSYDRSNHEVVFGGGTKLTVL
binds: all assays above
